In US20180207259A1 one finds Kd data, which are given here for one substance.

The target in the experiment is 92UG037.8-gp140-Fd (HIV-1 primary isolate 92UG037.8 (clade A)). Briefly: surface plasmon resonance.

On to monoclonal antibody (mAb) 2G12, for which the Kd was 17.9 nM.
